# In PMC4837482, “The complex binding mode of the peptide hormone H2 relaxin to its receptor RXFP1” (Nature Communications, 2016):
# Positions count from the first letter of the chain named.
# Legend:
# Assay in all cases: cAMP activity assay (pCRE β-galactosidase reporter), transfected HEK293T cells
# Type in all cases: cell-based
# RXFP1 Y58A = biological target: T1, RXFP1 Y58A (Homo sapiens, UniProt Q9HBX9, Y80A); details: construct Y58A, ±s.e.m.
# T1 construct: cells expressing full-length RXFP1 and mutants; expressed in transfected cells; host or cells: HEK293T
# T1 sequence (Q9HBX9 23-757 Y80A limits assumed): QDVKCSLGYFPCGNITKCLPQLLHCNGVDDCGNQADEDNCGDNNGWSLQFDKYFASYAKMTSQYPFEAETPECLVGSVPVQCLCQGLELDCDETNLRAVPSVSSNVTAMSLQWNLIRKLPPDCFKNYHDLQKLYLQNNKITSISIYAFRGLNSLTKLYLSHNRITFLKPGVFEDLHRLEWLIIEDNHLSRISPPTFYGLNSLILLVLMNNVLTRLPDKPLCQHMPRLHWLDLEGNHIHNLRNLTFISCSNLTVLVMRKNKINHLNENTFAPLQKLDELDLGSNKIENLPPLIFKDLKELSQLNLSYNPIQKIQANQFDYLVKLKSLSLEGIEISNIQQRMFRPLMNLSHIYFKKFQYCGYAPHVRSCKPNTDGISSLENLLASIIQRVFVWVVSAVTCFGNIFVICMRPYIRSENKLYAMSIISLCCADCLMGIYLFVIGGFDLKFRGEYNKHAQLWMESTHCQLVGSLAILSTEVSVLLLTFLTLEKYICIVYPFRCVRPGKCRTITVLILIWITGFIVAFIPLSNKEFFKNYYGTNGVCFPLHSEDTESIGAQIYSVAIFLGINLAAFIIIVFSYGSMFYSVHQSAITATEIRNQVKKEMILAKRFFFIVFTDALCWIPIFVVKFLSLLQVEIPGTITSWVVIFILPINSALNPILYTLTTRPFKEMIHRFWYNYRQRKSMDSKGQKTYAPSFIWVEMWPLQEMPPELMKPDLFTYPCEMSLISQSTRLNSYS
# In short: (§1)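 H2 relaxin dilutions in minimal media with 1% DMSO; 5 μM Forskolin as positive control, media/1% DMSO as negative. After freezing at −80 °C, cells lysed in pH 8.0 phosphate buffers and chlorophenol red-β-D-galactopyranoside added; absorbance read at 570 nm. Responses given as % of 5 μM Forskolin maximum.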
# RXFP1 F50A = biological target: T2, RXFP1 F50A (Homo sapiens, UniProt Q9HBX9, F72A); details: construct F50A, ±s.e.m.
# T2 construct: expressed in transfected cells; host or cells: HEK293T
# T2 sequence (Q9HBX9 23-757 F72A limits assumed): T1 sequence (Q9HBX9 23-757 Y80A limits assumed) with F50A, A58Y
# In short: as §1
# RXFP1 A68^Δ = biological target: T3, RXFP1 A68^Δ (Homo sapiens, UniProt Q9HBX9, DEL90-90); details: construct A68^Δ, ±s.e.m.
# T3 construct: transiently transfected human embryonic kidney (HEK) 293T cells expressing full-length RXFP1 and mutants; expressed in transfected cells; host or cells: HEK293T
# T3 sequence (Q9HBX9 with tags, fused parts or gaps DEL90-90 limits assumed): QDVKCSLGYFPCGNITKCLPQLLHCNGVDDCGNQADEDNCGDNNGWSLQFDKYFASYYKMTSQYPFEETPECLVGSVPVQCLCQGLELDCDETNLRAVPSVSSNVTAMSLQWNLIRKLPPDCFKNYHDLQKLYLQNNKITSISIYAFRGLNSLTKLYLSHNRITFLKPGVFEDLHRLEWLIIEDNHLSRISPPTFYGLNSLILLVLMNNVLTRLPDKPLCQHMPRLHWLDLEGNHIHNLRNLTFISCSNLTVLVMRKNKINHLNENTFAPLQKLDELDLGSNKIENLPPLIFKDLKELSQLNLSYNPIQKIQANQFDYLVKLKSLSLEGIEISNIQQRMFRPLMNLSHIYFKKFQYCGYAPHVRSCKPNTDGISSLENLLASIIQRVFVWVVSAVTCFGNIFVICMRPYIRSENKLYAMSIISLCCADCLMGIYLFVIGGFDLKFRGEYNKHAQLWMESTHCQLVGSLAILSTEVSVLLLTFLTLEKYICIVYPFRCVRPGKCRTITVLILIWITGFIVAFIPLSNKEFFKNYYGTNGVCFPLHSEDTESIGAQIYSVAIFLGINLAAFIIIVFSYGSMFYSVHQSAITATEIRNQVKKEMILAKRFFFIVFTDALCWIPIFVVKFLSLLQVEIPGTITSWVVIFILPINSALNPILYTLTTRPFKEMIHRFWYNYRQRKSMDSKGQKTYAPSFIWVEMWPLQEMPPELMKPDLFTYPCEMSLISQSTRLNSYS
# In short: as §1
# [1] = percentage of maximum response to 5 μM Forskolin
substance,measurement,setting,value
H2 relaxin: two-chain 6-kDa peptide hormone structurally related to insulin; recombinant human gene-2 H2 relaxin provided by Corthera,H2 relaxin pEC50,RXFP1 Y58A; cAMP reporter,10.88±0.09 (3)
same,H2 relaxin Emax,RXFP1 Y58A; [1],89.14±7.93 (3) %
same,H2 relaxin pEC50,RXFP1 F50A; cAMP reporter,9.45±0.07 (4)
same,H2 relaxin Emax,RXFP1 F50A; [1],91.9±2.1 (4) %
same,H2 relaxin pEC50,RXFP1 A68^Δ; cAMP reporter,11.18±0.02 (3)
same,H2 relaxin Emax,RXFP1 A68^Δ; [1],93.78±3.19 (3) %
